Values belong to the binder of their own block, whether it stands above or below them.
How the values were obtained:
[1] = molecular target: T1, Human PD-L1-hFc (B3040, Biointron Biological Inc.) (human, UniProt Q9NZQ7 19-238, limits assumed); experiment: ELISA, recombinant human PD-L1, APC-labeled m1F11; recombinant human PD-L1, ELISA
T1 construct: also called recombinant human PD-L1-Fc; hu-PD-L1-Fc; not shown: human Fc of the bought fusion

[2] = molecular target: T2, Mouse PD-L1-his (50010-MO8H, Sino Biological) (mouse, UniProt Q9EP73 19-238); experiment: ELISA, m1F11 on recombinant mouse PD-L1, luminescence as percent of the highest value
T2 construct: Bought reagent; also called murine PD-L1; soluble mouse PD-L1; not shown: His tag

[3] = molecular target: T3, human PD-L1 on the cell surface (SP2/0 PD-L1 cells stably expressing human PD-L1); also human tumor cell lines … (human, UniProt Q9NZQ7 19-290); experiment: flow cytometry, APC-labeled m1F11 on SP2/0 PD-L1 cells
T3 construct: whole, on cells; also called membrane huPD-L1; cell surface PD-L1

[4] = molecular target: T4, Cynomolgus PD-L1-his (90251-C08H, Sino Biological) (cynomolgus, UniProt G7PSE7 19-238); experiment: ELISA, recombinant cynomolgus PD-L1, APC-labeled m1F11
T4 construct: Bought reagent; also called monkey PD-L1; soluble monkey PD-L1
T4 sequence (G7PSE7 entry or part of it C08H C08H limits assumed): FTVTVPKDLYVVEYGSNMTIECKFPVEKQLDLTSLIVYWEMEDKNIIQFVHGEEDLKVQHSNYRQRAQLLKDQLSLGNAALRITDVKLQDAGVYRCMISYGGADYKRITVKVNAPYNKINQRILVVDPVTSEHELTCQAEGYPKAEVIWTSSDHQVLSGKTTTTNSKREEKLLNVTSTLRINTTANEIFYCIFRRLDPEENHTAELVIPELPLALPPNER

[5] = molecular target: T3, human PD-L1 on the cell surface (SP2/0 …); experiment: flow cytometry, displacement of pre-bound biotin-huPD-1-hFc from SP2/0 PD-L1 cells, remaining PD-1 detected with streptavidin-FITC
[6] = molecular target: T3, human PD-L1 on the cell surface (SP2/0 …); experiment: flow cytometry on SP2/0 PD-L1 cells pre-incubated with biotin-huPD-1-hFc; bound antibody detected with anti-human kappa-APC
[7] = molecular target: T2, Mouse PD-L1-his (50010-MO8H, Sino …); experiment: ELISA, hu1F11 on soluble mouse PD-L1, luminescence as percent of the highest value
Description: Y-axis is the relative luminescence index generated by antibody/antigen binding and x-axis is the logarithm of antibody concentrations (ng/ml).

T1 sequence (Q9NZQ7 19-238 limits assumed): as the sequence (G7PSE7 entry or part of it C08H C08H limits assumed) above, with T33A, S34A, N62S, Q68R, R82Q, L173F, A185T, I192T, L215H counted along it

EC50 [1]: 0.0393 µg/mL | EC50 [3]: 0.0629 µg/mL | EC50 [4]: 0.0464 µg/mL
B1: m1F11 (murine anti-PD-L1 antibody from hybridoma clone 1F11) (antibody, V domains shown)
VH: QGQMQQSGAELVKPGASVKLSCKTSGFTFSSSYISWLKQKSGQSLEWIAWIYAGTGGTGYNQKFTGKAQLTVDTSSSTAYMQFSSLTTEDSAIYYCAISASYRYDDLFAYWGQGTLVTVSA
VL: QIVLTQSPAIMSASPGEKVTMTCSASSSVSSMHWYQQKSGTSPKRWIYDTSKLASGVPARFSGSGSGTSYSLTISSMETEDAATYYCQQWNSNPPTFGAGTKLELK
notes: Recombinant murine antibody expressed in CHO-S cells and used APC-labeled in the assays; also called 1F11-APC; murine version 1F11
binding result [2]: no binding (tested: log 3.9 on the axis (about 8000 ng/ml))

IC50 (read off the curve) [5]: ~0.9 µg/mL | EC50 (read off the curve) [6]: ~0.3 µg/mL
B2: humanized 1F11 (hu1F11) (antibody, human IgG1, kappa, N297A, V domains shown)
VH: QVQLQQSGAELVKPGASVKLSCKTSGFTFSSSYISWVKQSSGQGLEWIAWIYAGTGGTGYNQKFTGRASITVDTSTSTAYMQLSSLTSEDTAIYYCAISASYRYDDLFAYWGQGTLVTVSS
VL: QIVLTQSPASVSASPGEKVTITCSASSSVSSVHWYQQKSGTSPKRWIYDTSKLASGVPARFSGSGSGTSYSLTISSMETEDVATYYCQQWNSNPPTFGTGTKLEIKR
notes: Expressed in 293T cells; also called huIF11; humanized IF11
binding result [7]: no binding (tested: log 3.6 on the axis (about 4000 ng/ml))
